From publication PMC5058683, “Structural basis for small molecule targeting of the programmed death ligand 1 (PD-L1)” (Oncotarget, 2016)

Biological target: human PD-1 (33-150, Cys93 exchanged to serine) (human, UniProt Q15116 33-150, Cys93 exchanged to serine)
Assay: NMR titration; AIDA assay: 15N-labelled PD-1 (0.2 mM) slightly overtitrated with unlabelled PD-L1; 1H-15N HMQC linewidths; 300 K; complex mass estimated from relaxation time analysis
Conditions: both partners purified

Chain of human PD-1 (33-150, Cys93 exchanged to serine) (Q15116 other isoform, or with tags, fused parts or gaps Cys93 exchanged to serine | Cys93 exchanged to serine): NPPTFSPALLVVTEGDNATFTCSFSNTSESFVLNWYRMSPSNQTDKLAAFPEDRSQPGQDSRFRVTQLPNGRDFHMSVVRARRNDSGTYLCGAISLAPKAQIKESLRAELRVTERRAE

B1: human PD-L1 (amino acids 18-134) (domain or fragment)
chain: AFTVTVPKDLYVVEYGSNMTIECKFPVEKQLDLAALIVYWEMEDKNIIQFVHGEEDLKVQHSSYRQRARLLKDQLSLGNAALQITDVKLQDAGVYRCMISYGGADYKRITVKVNAPY
notes: human PD-L1 (programmed death ligand 1), amino acids 18-134, the distal extracellular IgG like domain; Cloned into pET-21b; The vector may add a C-terminal His tag with a short linker (surmised), and the deposited entries 5J89 and 5J8O would show it; Made in bacteria, so not glycosylated; Uniformly 15N-labelled in some NMR experiments; also called hPD-L1; programmed death ligand 1
stoichiometry N: 1
